Columns and labels:
[1] = test system: TPST; experiment: Inhibition of [35S]sulfate transfer in the TPST assay by free peptide; assay type: biochemical; details: free peptide versus immobilized peptide
Procedure: (§1) Assay of Sulfotransferase Activity. TPST activity was determined by measuring the transfer of [^35S]sulfate from [^35S]PAPS (Dupont/NEN) to an immobilized peptide. The peptide (QATEYEYLDYDFLPEC (SEQ ID NO:22)) represents the NH2-terminal 15 residues of the mature PSGL-1 polypeptide to which a carboxy terminal cysteine residue was added. […] The peptide was linked via the cysteine residue to iodoacetamide-activated resin (UltraLink™ Iodoacetyl, Pierce) at a density of 1.5-3.0 μmol/ml resin. The enzyme assay was performed by combining 10 μl of peptide-derivitized beads with 2-20 μl of sample in 40 mM PIPES, pH 6.8, 0.3 M NaCl, 20 mM MnCl2, 50 mM NaF, 1% Triton X-100, 1 mM 5′AMP in a final volume of […]. The assay was initiated by addition of 0.5 μCi of [^35S]PAPS (about 1.7 μM). After 30 min at 37° C., the reaction beads were washed extensively with 6 M guanidine at 65° C. and the radioactivity incorporated into the beads determined by liquid scintillation counting. The reaction rate was optimal at pH 6.8-7.0, 0.3 M NaCl, and 2 μM PAPS and was linear with respect to time and sample input. […] One unit of activity was defined as 1 pmol of product formed per minute.

[2] = test system: PSGL-1 peptide (QATEYEYLDYDFLPEC); experiment: TPST activity assay: transfer of [35S]sulfate from [35S]PAPS to immobilized PSGL-1 peptide; assay type: biochemical, Homo sapiens; details: for Induction-Fold: mean specific activity of TPST transfected vs. mock transfected extracts; for TPST activity in cell-free conditioned media / culture supernatants: conditioned media of transfected CHO-K1 and 293-T cells (full-length enzyme); for Specific Activity / specific activity of 293-T cell extracts: mean ± SD; for Specific Activity: 1 unit = 1 pmol product/min; for specific activity of 293-T cell extracts: 293-T cells transfected with full-length HPC4 fusion cDNA; for increase in specific activity of 293-T cell extracts compared to mock transfected: PSGL-1 peptide substrate
Procedure: as §1
Chinese hamster ovary cells (CHO-K1) were grown in high-glucose Alpha modified Eagle's media containing 10% FCS, 2 mM glutamine at 37° C. and 5% CO2. The human embryonic kidney cell line 293-T was grown in low-glucose Dulbecco's modified Eagle's media containing 10% FCS, 2 mM glutamine at 37° C. and 5% CO2. Cells were transfected with empty vector or vector containing cDNAs encoding human TPST-1-HPC4 fusion protein or mouse TPST-1 using Lipofectamine (Gibco/BRL) according to the instructions of the supplier. The media was changed at 24 h and after an additional 24 h the conditioned media was collected. The cell monolayers were washed with Ca^2+/Mg^2+-free Hank's balanced salt solution and the cells released from the plates. The cells were pelleted by centrifugation and extracted with 1% Triton X-100, 0.1 M NaCl, 20 mM TAPS (pH 9.0), 10 μg/ml leupeptin/antipain, 5 mM benzamidine. Extracts and conditioned media were clarified by centrifugation (15 min, 10,000 g) and stored at −80° C.
Expression and characterization of Recombinant TPST-2. Full-length human and mouse TPST-2 were expressed in 293-T cells as HPC4 fusion proteins as described in Experimental Procedures. Cells transfected with empty plasmid or plasmid encoding human and mouse TPST fusion proteins were extracted and assayed for TPST activity and protein content. Extracts were assayed as discussed above using a PSGL-1 peptide substrate (QATEYEYLDYDFLPEC (SEQ ID NO:22)). The specific activity of mock transfected 293-T cell extracts was 0.06±0.01 u/mg (mean±SD, n=6).

[3] = extracts of transfected 293-T cells

## QATEYEYLDYDFLPEC [free peptide]
[1]
  IC50 for inhibition of transfer of [35S]sulfate: equimolar to the concentration of immobilized peptide in the assay

B1: hTPST-1-HPC4: Human tyrosylprotein sulfotransferase-1 (SEQ ID NO:1) expressed as fusion protein with NH2-terminal HPC4 epitope (protein)
chain: MVGKLKQNLLLACLVISSVTVFYLGQHAMECHHRIEERSQPVKLESTRTTVRTGLDLKANKTFAYHKDMPLIFIGGVPRSGTTLMRAMLDAHPDIRCGEETRVIPRILALKQMWSRSSKEKIRLDEAGVTDEVLDSAMQAFLLEIIVKHGEPAPYLCNKDPFALKSLTYLSRLFPNAKFLLMVRDGRASVHSMISRKVTIAGFDLNSYRDCLTKWNRAIETMYNQCMEVGYKKCMLVHYEQLVLHPERWMRTLLKFLQIPWNHSVLHHEEMIGKAGGVSLSKVERSTDQVIKPVNVGALSKWVGKIPPDVLQDMAVIAPMLAKLGYDPYANPPNYGKPDPKIIENTRRVYKGEFQLPDFLKEKPQTEQVE
modifications: N-terminal HPC4 epitope tag
[2]; 293-T cell extracts, PSGL-1 peptide as substrate
  specific activity of TPST-1 extracts relative to TPST-2 extracts: comparable
[2]; 293-T cells
  Induction-Fold: 80 Fold
[2]; CHO-K1 cells
  Induction-Fold: 9 Fold
[2]
  TPST activity in cell-free conditioned media / culture supernatants: not detectable
[2]; [3]
  Specific Activity: 8.84 ± 1.53 (5) units/mg
[2]; extracts of transfected CHO-K1 cells
  Specific Activity: 2.31 ± 0.89 (3) units/mg
[2]; purified from 293-T cell extracts by HPC4 affinity chromatography
  specific activity of purified fusion protein: about 6,300 u/mg

B2: rat liver TPST: TPST purified from rat liver microsomes, polypeptide of about 50 kDa (protein)
chain: MVGKLKQNLLLACLVISSVTVFYLGQHAMECHHRIEERSQPARLENPKATVRTGLDIKANKTFTYHKNMPLIFIGGVPRSGTTLMRAMLDAHPDIRCGEETRVIPRILALKQMWSRSSKEKIRLDEAGVTDEVLDSAMQAFLLEVIVKHGEPAPYLCNKDPFALKSLTYLARLFPNAKFLLMVRDGRASVHSMISRKVTIAGFDLNSYRDCLTKWNRAIETMYNQCMEVGYKKCMLVHYEQLVLHPERWMRTLLKFLHIPWNHSVLHHEEMIGKAGGVSLSKVERSTDQVIKPVNVGALSKWVGKIPPDVLQDMAVIAPMLAKLGYDPYANPPNYGKPDPKILENTRRVHKGEFQLPDFLKEKPQTEQVE
[2]; rat liver microsomal enzyme after second PSGL-1 peptide column
  specific activity of purified enzyme: about 2,950 units/mg

B3: mTPST-1: Mouse tyrosylprotein sulfotransferase-1 (SEQ ID NO:3), expressed from unmodified pcDNA3.1(+) vector (protein)
chain: MVGKLKQNLLLACLVISSVTVFYLGQHAMECHHRIEERSQPARLENPKATVRAGLDIKANKTFTYHKDMPLIFIGGVPRSGTTLMRAMLDAHPDIRCGEETRVIPRILALKQMWSRSSKEKIRLDEAGVTDEVLDSAMQAFLLEVIVKHGEPAPYLCNKDPFALKSLTYLARLFPNAKFLLMVRDGRASVHSMISRKVTIAGFDLNSYRDCLTKWNRAIETMYNQCMEVGYKKCMLVHYEQLVLHPERWMRTLLKFLHIPWNHSVLHHEEMIGKAGGVSLSKVERSTDQVIKPVNVGALSKWVGKIPPDVLQDMAVIAPMLAKLGYDPYANPPNYGKPDPKILENTRRVYKGEFQLPDFLKEKPQTEQVE
[2]; 293-T cells
  Induction-Fold: 74 Fold
[2]
  TPST activity in cell-free conditioned media / culture supernatants: not detectable
[2]; [3]
  Specific Activity: 8.10 ± 1.37 (4) units/mg

B4: mouse TPST-2: Full-length mouse tyrosylprotein sulfotransferase-2 (SEQ ID NO:7) expressed as HPC4 fusion protein (protein)
chain: MRLSVRKVLLAAGCALALVLAVQLGQQVLECRAVLGGTRNPRRMRPEQEELVMLGADHVEYRYGKAMPLIFVGGVPRSGTTLMRAMLDAHPEVRCGEETRIIPRVLAMRQAWTKSGREKLRLDEAGVTDEVLDAAMQAFILEVIAKHGEPARVLCNKDPFTLKSSVYLARLFPNSKFLLMVRDGRASVHSMITRKVTIAGFDLSSYRDCLTKWNKAIEVMYAQCMEVGRDKCLPVYYEQLVLHPRRSLKRILDFLGIAWSDTVLHHEDLIGKPGGVSLSKIERSTDQVIKPVNLEALSKWTGHIPRDVVRDMAQIAPMLARLGYDPYANPPNYGNPDPIVINNTHRVLKGDYKTPANLKGYFQVNQNSTSPHLGSS
modifications: HPC4 fusion tag
[2]
  specific activity of 293-T cell extracts: 2.91±0.86 u/mg
[2]; 293-T cells
  increase in specific activity of 293-T cell extracts compared to mock transfected: 46 fold

B5: C. elegans TPST-A: C. elegans tyrosylprotein sulfotransferase of 380 amino acids (SEQ ID NO:9), expressed full-length in 293-T cells (protein)
chain: MRKNRELLLVLFLVVFILFYFITARTADDPYYSNHREKFNGAAADDGDESLPFHQLTSVRSDDGYNRTSPFIFIGGVPRSGTTLMRAMLDAHPEVRCGEETRVIPRILNLRSQWKKSEKEWNRLQQAGVTGEVINNAISSFIMEIMVGHGDRAPRLCNKDPFTMKSAVYLKELFPNAKYLLMIRDGRATVNSIISRKVTITGFDLNDFRQCMTKWNAAIQIMVDQCESVGEKNCLKVYYEQLVLHPEAQMRRITEFLDIPWDDKVLHHEQLIGKDISLSNVERSSDQVVKPVNLDALIKWVGTIPEDVVADMDSVAPMLRRLGYDPNANPPNYGKPDELVAKKTEDVHKNGAEWYKKAVQVVNDPGRVDKPIVDNEVSKL
[2]; 293-T cells
  increase in specific activity of 293-T cell extracts compared to mock transfected: 40 fold

B6: human TPST-2: Full-length human tyrosylprotein sulfotransferase-2 (SEQ ID NO:5) expressed as HPC4 fusion protein (protein)
chain: MRLSVRRVLLAAGCALVLVLAVQLGQQVLECRAVLAGLRSPRGAMRPEQEELVMVGTNHVEYRYGKAMPLIFVGGVPRSGTTLMRAMLDAHPEVRCGEETRIIPRVLAMRQAWSKSGREKLRLDEAGVTDEVLDAAMQAFILEVIAKHGEPARVLCNKDPFTLKSSVYLSRLFPNSKFLLMVRDGRASVHSMITRKVTIAGFDLSSYRDCLTKWNKAIEVMYAQCMEVGKEKCLPVYYEQLVLHPRRSLKLILDFLGIAWSDAVLHHEDLIGKPGGVSLSKIERSTDQVIKPVNLEALSKWTGHIPGDVVRDMAQIAPMLAQLGYDPYANPPNYGNPDPFVINNTQRVLKGDYKTPANLKGYFQVNQNSTSSHLGSS
modifications: HPC4 epitope tag
[2]
  specific activity of 293-T cell extracts: 7.07±1.28 u/mg
[2]; 293-T cells
  increase in specific activity of 293-T cell extracts compared to mock transfected: 112 fold

Source: patent US6713283B2, “Tyrosylprotein sulfotransferases” (The Board of Regents of the University of Oklahoma, priority 1998, dated 2004)
